The text below walks through data of US20250186594A1 (BRIGHT PEAK THERAPEUTICS, published 2025).

For test [1], the target named is T1, IL-18 receptor (IL-18R) on HEK-Blue IL18R reporter cells (UniProt Q13478 19-541; O95256 20-599, limits assumed).
T1 sequence (looked up) 1: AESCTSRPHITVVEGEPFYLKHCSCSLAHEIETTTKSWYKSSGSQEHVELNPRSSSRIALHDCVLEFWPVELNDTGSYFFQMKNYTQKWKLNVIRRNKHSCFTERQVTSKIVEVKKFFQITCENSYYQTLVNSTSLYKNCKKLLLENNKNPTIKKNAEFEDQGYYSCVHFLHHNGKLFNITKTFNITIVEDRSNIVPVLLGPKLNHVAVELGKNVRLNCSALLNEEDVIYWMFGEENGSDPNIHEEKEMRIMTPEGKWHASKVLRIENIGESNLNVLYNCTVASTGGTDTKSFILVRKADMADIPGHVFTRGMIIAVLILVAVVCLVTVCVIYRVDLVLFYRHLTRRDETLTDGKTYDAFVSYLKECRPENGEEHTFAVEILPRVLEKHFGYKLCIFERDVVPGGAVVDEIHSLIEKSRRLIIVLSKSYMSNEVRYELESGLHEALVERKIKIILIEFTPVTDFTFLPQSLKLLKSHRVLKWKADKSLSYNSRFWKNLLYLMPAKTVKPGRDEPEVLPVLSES
T1 sequence (looked up) 2: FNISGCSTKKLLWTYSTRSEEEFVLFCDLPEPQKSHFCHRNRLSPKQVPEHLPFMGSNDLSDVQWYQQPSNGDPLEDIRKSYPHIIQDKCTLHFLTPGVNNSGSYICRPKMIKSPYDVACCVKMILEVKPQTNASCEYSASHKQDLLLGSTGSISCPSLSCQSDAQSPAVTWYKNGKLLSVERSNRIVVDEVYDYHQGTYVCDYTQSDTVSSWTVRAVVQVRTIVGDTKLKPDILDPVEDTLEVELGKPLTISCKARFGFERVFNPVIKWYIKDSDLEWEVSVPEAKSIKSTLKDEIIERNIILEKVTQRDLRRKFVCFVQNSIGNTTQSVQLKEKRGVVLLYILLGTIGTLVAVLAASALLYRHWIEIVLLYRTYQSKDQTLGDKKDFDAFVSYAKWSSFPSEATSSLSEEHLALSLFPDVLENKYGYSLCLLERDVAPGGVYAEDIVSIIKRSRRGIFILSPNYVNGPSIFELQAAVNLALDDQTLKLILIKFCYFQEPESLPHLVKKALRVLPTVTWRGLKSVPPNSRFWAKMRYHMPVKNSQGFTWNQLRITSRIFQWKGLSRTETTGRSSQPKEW
Briefly: cell-based or functional assay.

The target of test [2] is T1, IL-18 receptor (IL-18R) on HEK-Blue …. Briefly: cell-based or functional assay. The source holds these as a separate data set.
Test [3] has as its target T2, IL-18Rα/β heterodimer (Fc fused human IL-18Rα mixed with Fc fused human IL-18Rβ) (human, UniProt Q13478 19-329; O95256 20-356, limits assumed).
T2 construct: Alpha and beta Fc fusions were mixed and pre-incubated for 30 min before capture on anti-human IgG; also called alpha/beta heterodimer IL-18 receptor; heterodimeric human IL-18 receptor alpha (CD218a) and IL-18R accessory protein (IL-18RAP/CDw218b); not shown: Fc
T2 sequence (looked up) 1: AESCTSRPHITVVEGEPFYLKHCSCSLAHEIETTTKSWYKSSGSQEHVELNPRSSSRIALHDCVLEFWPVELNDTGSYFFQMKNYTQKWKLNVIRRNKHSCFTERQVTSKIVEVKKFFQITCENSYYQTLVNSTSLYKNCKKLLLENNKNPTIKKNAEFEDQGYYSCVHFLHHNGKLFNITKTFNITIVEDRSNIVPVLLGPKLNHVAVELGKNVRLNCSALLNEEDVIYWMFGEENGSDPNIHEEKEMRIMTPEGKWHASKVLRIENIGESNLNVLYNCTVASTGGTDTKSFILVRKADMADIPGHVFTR
T2 sequence (looked up) 2: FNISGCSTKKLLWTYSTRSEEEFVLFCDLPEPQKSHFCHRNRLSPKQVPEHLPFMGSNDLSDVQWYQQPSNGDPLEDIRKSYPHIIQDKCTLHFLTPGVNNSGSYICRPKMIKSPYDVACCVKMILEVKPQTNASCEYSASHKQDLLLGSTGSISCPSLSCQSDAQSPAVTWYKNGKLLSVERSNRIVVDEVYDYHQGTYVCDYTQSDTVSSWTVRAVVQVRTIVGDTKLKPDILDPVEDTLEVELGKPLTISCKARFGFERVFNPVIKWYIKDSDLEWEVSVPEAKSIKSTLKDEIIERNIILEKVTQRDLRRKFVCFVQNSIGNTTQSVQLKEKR
Briefly: SPR, Fc-IL-18Rα/β captured, heterogeneous ligand fit. Here is the method:
(§1) The interaction of the wild type and of modified IL-18 polypeptides with human IL-18 receptor subunits are measured with Surface Plasmon Resonance (SPR) technology. Anti-human IgG antibodies are bound by amine coupling onto a CM5 chip to capture 6 µg/mL of Fc fused human IL-18Rα, […] of Fc fused human IL-18Rβ, or […] of Fc fused human IL-18BP isoform a (IL-18BPa) for 30 min before capture. In other settings, […] of alpha and beta IL-18 receptors are mixed and pre-incubated for 30 min before capture of the alpha/beta heterodimer IL-18 receptor.
(§2) The kinetic binding of the IL-18 analytes are measured with a Biacore 8K instrument in two fold serial dilutions starting at […] down to 0.98 nM. Regeneration of the surface back to amine coupled anti IgG antibody is done after every concentration of analyte. To measure the protein association to the receptors, the samples are injected with a flow rate of […] for 60 s, followed by 300 s buffer only to detect the dissociation. The used running buffer is 1×PBS with 0.05% Tween20. The relative response units (RU, Y-axis) are plotted against time (s, X-axis) and analyzed in a kinetic 1:1 binding model for the monomer receptor binding and for the binding to the IL-18BP. A kinetic heterogenous ligand fit model is applied for the alpha/beta heterodimer binding.

Test [4] concerns the target T3, Fc fused human IL-18Rα (human, UniProt Q13478 19-329, limits assumed).
T3 construct: also called IL-18Rα monomer; human IL-18 receptor alpha (CD218a); not shown: Fc
T3 sequence (looked up): T2 sequence (looked up) 1
The experiment in a line: SPR, Fc-IL-18Rα captured, 1:1 fit. Here is the method:
as §1, §2

Where a chain is given by its changes, count along the chain named. Names and notes keep the numbering of the source.

B1: IL-18 variant SEQ ID NO: 242 (N-terminal G, E6K, V11I, C38A, K53A, T63A, C76A, C127A) (ligand)
chain: GYFGKLKSKLSIIRNLNDQVLFIDQGNRPLFEDMTDSDARDNAPRTIFIISMYADSQPRGMAVAISVKCEKISTLSAENKIISFKEMNPPDNIKDTKSDIIFFQRSVPGHDNKMQFESSSYEGYFLAAEKERDLFKLILKKEDELGDRSIMFTVQNED
With B1, the “EC50, HEK-Blue IL18R reporter” value in test [1] stood at 1680 pM. Besides, in test [2], the “EC50 (read off the curve); SEAP reporter in HEK-Blue IL18R cells (OD 620 nM)” value (shortened to “EC50 (read off the curve); SEAP reporter”) was approximately 2 pM.

B2: IL-18 variant SEQ ID NO: 244 (N-terminal G, E6K, V11I, C38A, M51G, K53A, T63A, C76A, C127A) (ligand)
chain: B1 chain with M52G
Turning to B2, the “EC50, HEK-Blue IL18R reporter” value in test [1] was 14000 pM. The “EC50 (read off the curve); SEAP reporter” value in test [2] is approximately 10 pM.

B3: IL-18 variant SEQ ID NO: 30 (E6K, V11I, C38A, K53A, T63A, C76A, C127A) (ligand)
chain: YFGKLKSKLSIIRNLNDQVLFIDQGNRPLFEDMTDSDARDNAPRTIFIISMYADSQPRGMAVAISVKCEKISTLSAENKIISFKEMNPPDNIKDTKSDIIFFQRSVPGHDNKMQFESSSYEGYFLAAEKERDLFKLILKKEDELGDRSIMFTVQNED
In test [3], B3 showed a Kd of 490 pM, a koff of 0.000311 s⁻¹ and a kon of 866000 M⁻¹ s⁻¹. In addition, in test [4], the Kd turned out to be 30300 pM, the koff was 0.0536 s⁻¹ and the kon came to 1.77e+06 M⁻¹ s⁻¹. The “EC50, HEK-Blue IL18R reporter” value in test [1] stood at 53 pM. The “EC50 (read off the curve); SEAP reporter” value in test [2] is approximately 0.05 pM.

B4: IL-18 variant SEQ ID NO: 239 (E6K, V11I, C38A, M51G, K53A, T63A, C76A, C127A) (ligand)
chain: B3 chain with M51G
With B4, the “EC50, HEK-Blue IL18R reporter” value in test [1] was 100 pM. For the same molecule, in test [2], the “EC50 (read off the curve); SEAP reporter” value was approximately 0.1 pM.

B5: IL-18 variant SEQ ID NO: 207 (V11I, C38A, M51G, K53A, C76A, C127A) (ligand)
chain: B3 chain with K6E, M51G, A63T
As to B5, the “EC50, HEK-Blue IL18R reporter” value in test [1] came to 800 pM. In test [2], the “EC50 (read off the curve); SEAP reporter” value is approximately 4 pM.

B6: IL-18 variant SEQ ID NO: 59 (E6K, C38A, K53A) (ligand)
chain: B3 chain with I11V, A63T, A76C, A127C
On to B6, for which, in test [3], the equilibrium dissociation constant (Kd) was found to be 660 pM, the koff was determined as 0.000815 s⁻¹ and the kon amounted to 1.24e+06 M⁻¹ s⁻¹. In test [4], this molecule yielded a Kd of 17800 pM, a koff of 0.0165 s⁻¹ and an on-rate constant (kon) of 1.77e+06 M⁻¹ s⁻¹. Moreover, the “EC50, HEK-Blue IL18R reporter” value in test [1] was determined as 268 pM. For the same molecule, the “EC50 (read off the curve); SEAP reporter” value in test [2] is approximately 0.3 pM.
